Measurements as given in patent US6660837B1, “Modified protein derived from protein kinase N” (Kirin Beer Kabushiki Kaisha, priority 1995, dated 2003).
Ends that are not written are not given here.

Assays:
[1] = target: full-length human PKN (Homo sapiens, UniProt Q16512); assay: Co-immunoprecipitation of PKN with HA-tagged α-actinin in COS7 cells; format: cell-based
[2] = target: T1, in vitro translated PKNN2 (Homo sapiens, UniProt Q16512); assay: In vitro binding of GST-HuActSkl fragments to PKNN2; conditions: resistant to 0.5% Triton X-100/0.5 M NaCl wash
T1 construct: made in house; host or cells: in vitro translation in rabbit reticulocyte lysate (Promega)
T1 sequence (Q16512 1-474): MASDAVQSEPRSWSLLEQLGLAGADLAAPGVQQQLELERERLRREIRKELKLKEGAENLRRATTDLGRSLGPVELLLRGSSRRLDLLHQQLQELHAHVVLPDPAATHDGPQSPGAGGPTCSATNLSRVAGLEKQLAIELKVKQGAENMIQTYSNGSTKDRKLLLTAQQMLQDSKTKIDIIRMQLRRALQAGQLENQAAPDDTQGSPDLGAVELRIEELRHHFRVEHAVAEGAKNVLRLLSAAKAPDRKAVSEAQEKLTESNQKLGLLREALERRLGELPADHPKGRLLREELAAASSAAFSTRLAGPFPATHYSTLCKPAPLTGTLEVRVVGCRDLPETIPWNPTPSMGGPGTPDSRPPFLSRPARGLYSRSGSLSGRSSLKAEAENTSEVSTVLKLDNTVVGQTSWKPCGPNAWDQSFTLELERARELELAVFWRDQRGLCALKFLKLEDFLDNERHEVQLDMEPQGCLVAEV
Method: In vitro transcription for the N-terminal region of PKN (the amino acid sequence 1-474, this region being designated as PKNN2 (Example 8)) was performed as described in Example 8. For in vitro translation, cRNAs were translated in rabbit reticulocyte lysate (Promega) in the presence of [^35S] methionine as described in Example 8.
(§1) For in vitro binding experiment, 2 μl of in vitro translated PKNN2 was mixed with 5 μg of each GST-α-actinin fusion protein or with 25 μg of GST alone in 400 μl of GST binding buffer (20 mM Tris/HCl at pH 7.5, 0.5 mM DTT, 150 mM NaCl, 0.05% Triton-X100, 1 mM EDTA, 1 μg/ml leupeptin) and incubated for 1 hr at 4° C. After addition of 25 μl of glutathione-Sepharose 4B pretreated with 10 mg/ml of E. coli extract to block nonspecific binding, the binding reaction was continued for additional 30 min at 4° C. The glutathione-Sepharose 4B was then washed four times in GST washing buffer (20 mM Tris/HCl at pH 7.5, 0.5 mM DTT, 1 mM EDTA, 1 μg/ml leupeptin) containing 0.5 M NaCl and 0.5% Triton X-100, and further washed with GST washing buffer. Bound proteins were eluted with GST elution buffer (100 mM Tris/HCl at pH 7.5, 10 mM glutathione, 120 mM NaCl, 1 mM EDTA, 0.5 mM DTT, 1 μg/ml leupeptin) and were subjected to SDS-PAGE. The binding was visualized and quantitated by an imaging analyzer (FUJI BAS1000).

[3] = test system: GST-NF (each subunit) fusion proteins; assay: In vitro binding of in vitro translated PKN to GST-NF (each subunit); conditions: GST pull-down
Text: For in vitro transcription, truncated human PKN was made as follows; Expression vector pPKNN2 for N-terminal region of PKN (the amino acid sequence 1-474 in SEQ ID NO: 1, this region was designated as “PKNN2”) was made by digesting phPKN-H4 (a plasmid containing human PKN cDNA in pBluescript II SK (Mukai, H. & Ono, Y., Biochem. Biophys. Res. Commun. 199, 897-904 (1994)) with Bst EII, and filling in the ends with T4 DNA polymerase, and self-legation. This removed the original amino acid sequences C-terminal downstream of the BstEII site (1425 nucleotides from initiating ATG codon), and a stop codon was created in the plasmid sequence. Fragment coding for the amino acid sequence 614-942 in SEQ ID NO: 1, (This region was designated as “PKNC2”) containing the conserved catalytic domain of human PKN was made by PCR amplification. Expression vector pPKNC2 was made by subcloning this fragment into pRc/CMV (Invitfrogen Corp.). These plasmids were linealized by cutting with XbaI, and CRNA was transcribed using T7 RNA polymerase. For NFL, pBL (Nakagawa, T. et al., J. Cell. Biol. 129, 411-429 (1995)) was linealized by cutting with HindIII, and CRNA was transcribed using T3 RNA polymerase. For in vitro translation, these cRNAs were translated in rabbit reticulocyte lysate (Promega) in the presence of [^35S] methionine. […]

[4] = test system: repeat 20 of rat α-spectrin; assay: In vitro binding of PKN to α-spectrin repeat 20
Method: cDNAs encoding the spectrin-like repeat 3 (the amino acid sequence 479-600) and EF-hand-like region (the amino acid sequence 712-843) of HuActNm were amplified by PCR from human brain cDNA library, and were ligated to pGEX4T vector. cDNAs encoding the spectrin repeat 20 and EF-hand-like region of α-actinin were amplified by PCR from rat brain cDNA library, and were ligated to pGEX4T vector. Expression and purification of GST or GST fusion proteins were performed according to the manufacturer's instruction (Phamacia Biotech Inc.). The eluate from glutathione-Sepharose 4B (Pharmacia Biotech Inc.) was dialyzed overnight against 10 mM Tris/HCl at pH 7.5 containing 1 mM EDTA, 1 mM DTT, and 0.1 μg/ml leupeptin.
Since PKN bound to the repeat 3 of α-actinin, the present inventors have examined whether PKN can bind to the repeat 20 of α-spectrin.

[5] = target: T2, spectrin-like repeat 3 domain of HuActNm (Homo sapiens, UniProt P12814); assay: In vitro binding of PKNN2 to HuActNm spectrin-like repeat 3
T2 construct: made in house; host or cells: E. coli
T2 sequence (P12814 479-600): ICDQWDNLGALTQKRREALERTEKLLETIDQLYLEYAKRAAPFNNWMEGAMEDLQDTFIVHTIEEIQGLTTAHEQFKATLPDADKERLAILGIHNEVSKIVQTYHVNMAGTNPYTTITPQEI
Method: as §1
(§2) Accordingly, the present inventors have studied whether the in vitro translated PKNN2 could bind to the region of HuActNm corresponding to the PKN-binding site of HuActSkl in the same manner as in Example 25. The HuActNm fragment used in the experiment was prepared according to the following procedure. […]

[6] = target: T3, EF-hand-like domain of HuActNm (Homo sapiens, UniProt P12814); assay: In vitro binding of PKNN2 to HuActNm EF-hand-like domain
T3 construct: made in house; host or cells: E. coli (GST fusion); rabbit reticulocyte lysate (PKNN2)
T3 sequence (P12814 712-843): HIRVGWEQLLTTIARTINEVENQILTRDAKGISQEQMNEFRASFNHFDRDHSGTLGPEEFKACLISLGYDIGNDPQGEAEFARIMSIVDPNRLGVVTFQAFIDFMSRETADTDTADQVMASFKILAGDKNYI
Method: as §1, §2

[7] = target: T4, RhoA (Homo sapiens, UniProt P61586); assay: Yeast two-hybrid, region of PKN with RhoA; format: binding; conditions: data not shown
T4 construct: expressed in transfected cells; host or cells: yeast (two-hybrid system)
T4 sequence (P61586 whole entry): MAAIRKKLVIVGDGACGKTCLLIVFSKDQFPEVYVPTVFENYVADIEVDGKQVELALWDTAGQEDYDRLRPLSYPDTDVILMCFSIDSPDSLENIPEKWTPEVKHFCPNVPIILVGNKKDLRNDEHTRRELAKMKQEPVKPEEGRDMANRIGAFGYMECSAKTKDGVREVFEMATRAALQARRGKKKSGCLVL
Text: (§3) The two-hybrid methods was employed to identify the region of PKN that interacted with HuActSkl , and this region was compared with the binding site for RhoA, which binds to PKN, in vitro and in vivo. […] This region corresponds to the second leucine zipperlike sequence and the N-terminal region adjacent thereto, which is conserved through evolution in vertebrates (Mukai, H., et al., Biochim. Biophys. Acta 1261, 296-300 (1995)). Thus α-actinin binds to the region distinct from that which binds to Rho.

[8] = test system: α-actinin (HuActSkl); assay: Yeast two-hybrid, regions of PKN with HuActSkl; format: binding, human
Chain of α-actinin (HuActSkl) (P35609 344-894 limits assumed): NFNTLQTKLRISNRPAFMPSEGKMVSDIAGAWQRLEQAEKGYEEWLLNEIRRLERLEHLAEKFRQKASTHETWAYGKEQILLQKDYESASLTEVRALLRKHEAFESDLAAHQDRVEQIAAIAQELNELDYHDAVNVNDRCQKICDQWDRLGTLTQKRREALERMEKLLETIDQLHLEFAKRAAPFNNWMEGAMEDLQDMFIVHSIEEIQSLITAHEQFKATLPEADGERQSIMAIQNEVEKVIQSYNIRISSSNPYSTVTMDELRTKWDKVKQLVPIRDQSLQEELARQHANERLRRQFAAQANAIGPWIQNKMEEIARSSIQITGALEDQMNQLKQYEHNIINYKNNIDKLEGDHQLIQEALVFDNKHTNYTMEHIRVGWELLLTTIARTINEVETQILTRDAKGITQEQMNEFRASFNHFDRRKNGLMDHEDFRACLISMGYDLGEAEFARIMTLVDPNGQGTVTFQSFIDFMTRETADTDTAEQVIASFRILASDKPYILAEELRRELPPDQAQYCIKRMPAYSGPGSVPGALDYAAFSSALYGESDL
Method: Schemes of the fusion constructs for human PKN, human skeletal muscle type α-actinin (HuActSkl , designated in (Beggs, A., et al., J. Biol. Chem. 267, 9281-9288 (1992)) and non-skeletal muscle type α-actinin (HuActNm, designated in (Beggs, A., et al., J. Biol. Chem. 267, 9281-9288 (1992)) used in this study are shown in FIGS. 41 and 42. Screening of proteins, which bind to the N-terminal region of human PKN (the amino acid sequence 1-540, this region being designated as “PKNNl”), was performed as described in Example 6. Primary positive clones were recovered and retransfected into the original yeast host strain YGH1 (a, ura3-52, his3-200, ade2-101, lys2-801, trpl-901, leu2-3, Can^r, gal4-542, gal80-538, LYS2::gal1uas-gal1tala-HIS3, URA3::gall-lacZ) in combination with the Gal4bd-PKN or the Gal4bd-p53 tumor suppresser. Plasmids that activated marker expression only in the presence of PKN were analyzed further.
as §3, with “Thus α-actinin binds to the region distinct from that which binds to Rho.” left out

Chain of full-length human PKN (P35609 333-894): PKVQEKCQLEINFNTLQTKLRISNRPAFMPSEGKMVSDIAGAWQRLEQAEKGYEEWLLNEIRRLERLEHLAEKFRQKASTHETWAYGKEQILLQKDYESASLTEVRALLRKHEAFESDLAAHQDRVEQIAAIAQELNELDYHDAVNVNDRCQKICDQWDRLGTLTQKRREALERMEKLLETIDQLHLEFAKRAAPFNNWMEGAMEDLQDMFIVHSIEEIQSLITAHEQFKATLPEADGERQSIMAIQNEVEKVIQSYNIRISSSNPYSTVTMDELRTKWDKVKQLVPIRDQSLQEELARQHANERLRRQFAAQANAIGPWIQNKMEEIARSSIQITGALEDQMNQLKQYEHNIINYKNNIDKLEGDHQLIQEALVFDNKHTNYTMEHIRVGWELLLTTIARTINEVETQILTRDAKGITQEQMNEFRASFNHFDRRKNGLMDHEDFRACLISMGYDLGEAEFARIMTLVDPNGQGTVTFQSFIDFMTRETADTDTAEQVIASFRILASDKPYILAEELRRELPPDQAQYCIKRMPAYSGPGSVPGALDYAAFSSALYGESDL
Chain of full-length human PKN (Q16512 whole entry, the tested form may be a part): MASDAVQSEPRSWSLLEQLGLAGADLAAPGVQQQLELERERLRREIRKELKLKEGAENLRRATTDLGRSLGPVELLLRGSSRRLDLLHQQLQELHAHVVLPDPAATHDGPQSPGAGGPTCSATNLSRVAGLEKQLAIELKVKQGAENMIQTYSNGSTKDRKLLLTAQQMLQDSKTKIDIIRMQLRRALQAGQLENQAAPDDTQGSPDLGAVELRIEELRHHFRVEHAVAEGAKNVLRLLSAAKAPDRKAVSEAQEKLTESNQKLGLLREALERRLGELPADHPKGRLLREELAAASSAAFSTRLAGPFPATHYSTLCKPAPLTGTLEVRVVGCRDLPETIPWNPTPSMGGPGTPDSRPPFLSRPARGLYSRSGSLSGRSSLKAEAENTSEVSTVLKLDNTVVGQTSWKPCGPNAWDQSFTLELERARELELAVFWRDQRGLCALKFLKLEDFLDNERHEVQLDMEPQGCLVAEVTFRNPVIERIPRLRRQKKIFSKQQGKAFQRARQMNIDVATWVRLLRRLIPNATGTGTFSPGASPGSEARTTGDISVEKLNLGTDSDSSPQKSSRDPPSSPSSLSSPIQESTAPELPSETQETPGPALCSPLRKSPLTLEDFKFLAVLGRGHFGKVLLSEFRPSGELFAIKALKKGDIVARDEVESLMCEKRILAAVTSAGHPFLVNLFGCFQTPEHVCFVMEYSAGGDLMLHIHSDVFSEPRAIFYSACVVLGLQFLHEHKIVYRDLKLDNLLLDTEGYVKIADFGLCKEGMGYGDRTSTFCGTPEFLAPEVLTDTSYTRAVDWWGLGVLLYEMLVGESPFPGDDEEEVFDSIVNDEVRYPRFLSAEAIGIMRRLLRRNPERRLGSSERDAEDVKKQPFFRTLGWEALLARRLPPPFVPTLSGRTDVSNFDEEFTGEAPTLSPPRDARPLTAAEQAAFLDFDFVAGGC

Question: “HA-tagged α-actinin: influenza HA epitope fused to the amino acid sequence 333-894 of HuActSkl (clone#4)” was tested. Which “co-immunoprecipitation of PKN with anti-HA antibody” value [1] did it give?
Answer: contained substantially immunoreactive PKN

Question: For “HuActSkl (837-894): human skeletal muscle type α-actinin fragment, GST fusion (ILASDKPYILAEELRRELPPDQAQYCIKRMPAYSGPGSVPGALDYAAFSSALYGESDL; also: GST fusion)”, which “binding of in vitro translated PKNN2 to the fragment” value [2] is on record?
Answer: not

Question: For “PKN: in vitro translated PKN (PKNN2, 1-474) in the binding assays of b333 and b480”, which “binding to each subunit of NF at the head-rod domain in vitro” value [3] is on record?
Answer: directly bound

Question: And the “in vitro binding to repeat 20 of rat α-spectrin” value [4]?
Answer: not detected

Question: With “PKNN2: N-terminal region of PKN, amino acid sequence 1-474 in SEQ ID NO: 1, in vitro translated” as the substance, how does the “binding to spectrin-like repeat 3 domain of HuActNm” value [5] read?
Answer: could bind

Question: And the “binding to EF-hand-like domain of HuActNm” value ([6]; absence of Ca^2+)?
Answer: not detected

Question: And the “binding to EF-hand-like region of HuActNm” value ([6]; presence of 1 mM Ca^2+)?
Answer: could effectively bind

Question: What does the source list for “amino acid 136-189 of PKN: region of PKN: second leucine zipper-like sequence and adjacent N-terminal region”?
Answer: interaction with RhoA in two-hybrid system [7]: no interaction was detected; interaction with α-actinin in two-hybrid system [8]: strongly interacted
